± gives the uncertainty stated by the source.

This series can be described thus: self-splicing fitness, log relative to wild type (ln ratio); higher = more splicing; Tetrahymena group I intron in knt gene, E. coli kanamycin selection, DiMSum; sequences stand for … in CUCUCU…GGAGGGAAAAGUUAUCAGGCAUGCACCUGGUAGCUAGUCUUUAAACCAAUAGAUUGCAUCGGUUUAAAAGGCAAGACCGUCAAAUUGCGGGAAAGGGGUCAACAGCCGUUCAGUACCAAGUCUCAGGGGAAACUUUGAGAUGGCCUUGCAAAGGGUAUGGUAAUAAGCUGACGGACAUGGUCCUAACCACGCAGCCAAGUCCUAAGUCAACAGAUCUUCUGUUGAUAUGGAUGCAGUUCACAGACUAAAUGUCGGUCGGGGAAGAUGUAUUCUUCUCAUAAGAUAUAGUCGGACCUCUCCUUAAUGGGAGCUAGCGGAUGAAGUGAUGCAACACUGGAGCCGCUGGGAACUAAUUUGUAUGCGAAAGUAUAUUGAUUAGUUUUGGAGUACUCGUGGUCG
The gist of the method: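 DiMSum derived fitness as the error-weighted combination of fold changes across replicates, kanamycin versus no kanamycin, normalised to wild type. E. coli BL21(DE3) held the library, which randomised all eight P1ex-region intron nucleotides within the knt kanamycin-resistance gene on pET-22b(+). Six replicate transformations grew overnight at 37°C or 30°C on LB agar with or without 25 μg/mL kanamycin, also containing 100 μg/mL carbenicillin, 50 μM IPTG and 0.2% rhamnose, and pooled colonies were amplicon-sequenced on an Illumina HiSeq 2500.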

Take AUUCAGCAAUAUUACGCACU: the “self-splicing fitness (ln)” value runs as follows: (30 °C) -0.181 ± 0.062; (37 °C) 0.535 ± 0.086.

With AUUCAGCAAUAUUACGCAUA, the “self-splicing fitness (ln)” value is -0.701 ± 0.15 (30 °C) and -1.07 ± 0.14 (37 °C).

Take AUUCAGCAAUAUUACGCCAA: the “self-splicing fitness (ln)” value reads like this: (30 °C) -2.22 ± 0.29; (37 °C) -1.19 ± 0.27.

Consider AUUCAGCAAUAUUACGCCUU, for which the “self-splicing fitness (ln)” value was -0.723 ± 0.079 (30 °C) and -0.133 ± 0.096 (37 °C).

On to AUUCAGCAAUAUUACGCGGU, for which the “self-splicing fitness (ln)” value reads like this: (30 °C) -3 ± 0.14; (37 °C) -2.21 ± 0.15.

Consider AUUCAGCAAUAUUACGCUAA, for which the “self-splicing fitness (ln)” value (30 °C) was -0.96 ± 0.094 and the “self-splicing fitness (ln)” value (37 °C) is -0.0329 ± 0.1.

On to AUUCAGCAAUAUUACGGAUG, for which the “self-splicing fitness (ln)” value (30 °C) was -0.985 ± 0.079 and the “self-splicing fitness (ln)” value (37 °C) is -0.448 ± 0.097.

In the case of AUUCAGCAAUAUUACGGCCC, the “self-splicing fitness (ln)” value is -0.851 ± 0.16 (30 °C) and -0.422 ± 0.21 (37 °C).

As to AUUCAGCAAUAUUACGGGAA, the “self-splicing fitness (ln)” value reads like this: (30 °C) -1.36 ± 0.12; (37 °C) -0.871 ± 0.13.

AUUCAGCAAUAUUACGUAUU: the “self-splicing fitness (ln)” value is -0.474 ± 0.065 (30 °C) and -0.558 ± 0.092 (37 °C).

Turning to AUUCAGCAAUAUUACGUGCC, the “self-splicing fitness (ln)” value runs as follows: (30 °C) -1.51 ± 0.1; (37 °C) -0.682 ± 0.14.

As to AUUCAGCAAUAUUACGUGUG, the “self-splicing fitness (ln)” value (30 °C) is -1.9 ± 0.062 and the “self-splicing fitness (ln)” value (37 °C) is -0.699 ± 0.067.

In the case of AUUGAGCAAUAUUACGAAAA, the “self-splicing fitness (ln)” value (30 °C) was -2.45 ± 0.41.

AUUGAGCAAUAUUACGAAGG: the “self-splicing fitness (ln)” value was -2.69 ± 0.36 (30 °C) and -2.39 ± 0.3 (37 °C).

For AUUGAGCAAUAUUACGACGA, the “self-splicing fitness (ln)” value (30 °C) was -3.19 ± 0.4 and the “self-splicing fitness (ln)” value (37 °C) is -0.517 ± 0.22.

Regarding AUUGAGCAAUAUUACGAGAC, the “self-splicing fitness (ln)” value (37 °C) is -0.883 ± 0.45.

As for AUUGAGCAAUAUUACGAGGU, the “self-splicing fitness (ln)” value (30 °C) was -3.14 ± 0.36 and the “self-splicing fitness (ln)” value (37 °C) was -2.02 ± 0.36.

For AUUGAGCAAUAUUACGCAAC, the “self-splicing fitness (ln)” value was -3.42 ± 0.26 (30 °C) and -2.26 ± 0.39 (37 °C).

In the case of AUUGAGCAAUAUUACGCAAU, the “self-splicing fitness (ln)” value by setting is: (30 °C) -3.28 ± 0.26; (37 °C) -2.07 ± 0.21.

Turning to AUUGAGCAAUAUUACGCACU, the “self-splicing fitness (ln)” value is -0.165 ± 0.14 (30 °C) and -0.756 ± 0.15 (37 °C).

Take AUUGAGCAAUAUUACGCCGC: the “self-splicing fitness (ln)” value (30 °C) was -2.67 ± 0.49.

Regarding AUUGAGCAAUAUUACGCCGU, the “self-splicing fitness (ln)” value (37 °C) was -2.56 ± 0.49.

Regarding AUUGAGCAAUAUUACGCGAU, the “self-splicing fitness (ln)” value reads like this: (30 °C) -3.68 ± 0.32; (37 °C) -2.33 ± 0.34.

AUUGAGCAAUAUUACGCGGA: the “self-splicing fitness (ln)” value by setting is: (30 °C) -4.15 ± 0.35; (37 °C) -2.2 ± 0.14.

On to AUUGAGCAAUAUUACGCGUA, for which the “self-splicing fitness (ln)” value (37 °C) was -1.87 ± 0.31.

As to AUUGAGCAAUAUUACGCUGU, for the setting “30 °C”, the “self-splicing fitness (ln)” value is -1.97 ± 0.25.

In the case of AUUGAGCAAUAUUACGCUUA, the “self-splicing fitness (ln)” value reads like this: (30 °C) -2.75 ± 0.16; (37 °C) -1.02 ± 0.13.

Turning to AUUGAGCAAUAUUACGGAAC, the “self-splicing fitness (ln)” value (30 °C) was -3.09 ± 0.23.

For the sequence AUUGAGCAAUAUUACGGAAG, where the note is “37 °C”, the “self-splicing fitness (ln)” value was -2.63 ± 0.32.

For AUUGAGCAAUAUUACGGAGG, under “30 °C”, the “self-splicing fitness (ln)” value is -2.97 ± 0.22.

Turning to AUUGAGCAAUAUUACGGAUU, the “self-splicing fitness (ln)” value reads like this: (30 °C) -2.96 ± 0.23; (37 °C) -1.64 ± 0.23.

Regarding AUUGAGCAAUAUUACGGCCA, the “self-splicing fitness (ln)” value reads like this: (30 °C) -2.29 ± 0.18; (37 °C) -0.921 ± 0.18.

Turning to AUUGAGCAAUAUUACGGGGC, the “self-splicing fitness (ln)” value is -3.06 ± 0.26 (30 °C) and -3.09 ± 0.3 (37 °C).

As for AUUGAGCAAUAUUACGGGUG, the “self-splicing fitness (ln)” value is -4.2 ± 0.28 (30 °C) and -2.2 ± 0.3 (37 °C).

As for AUUGAGCAAUAUUACGUACA, the “self-splicing fitness (ln)” value by setting is: (30 °C) -3.85 ± 0.27; (37 °C) -1.87 ± 0.16.

Take AUUGAGCAAUAUUACGUGUU: the “self-splicing fitness (ln)” value runs as follows: (30 °C) -3.91 ± 0.22; (37 °C) -2.34 ± 0.14.

Take AUUGAGCAAUAUUACGUUAA: the “self-splicing fitness (ln)” value (30 °C) is -3.84 ± 0.37 and the “self-splicing fitness (ln)” value (37 °C) is -1.47 ± 0.26.

For AUUGAGCAAUAUUACGUUAG, the “self-splicing fitness (ln)” value runs as follows: (30 °C) -3 ± 0.14; (37 °C) -2.73 ± 0.19.

For the sequence AUUGAGCAAUAUUACGUUUG, under “37 °C”, the “self-splicing fitness (ln)” value was -1.91 ± 0.26.

Take AUUUAGCAAUAUUACGAAGG: the “self-splicing fitness (ln)” value is -3.42 ± 0.38 (30 °C) and -2.76 ± 0.41 (37 °C).

For the sequence AUUUAGCAAUAUUACGAAUC, the “self-splicing fitness (ln)” value runs as follows: (30 °C) -4.21 ± 0.31; (37 °C) -3.21 ± 0.35.

Regarding AUUUAGCAAUAUUACGAUAC, the “self-splicing fitness (ln)” value (30 °C) was -2.44 ± 0.17 and the “self-splicing fitness (ln)” value (37 °C) is -1.01 ± 0.25.

As for AUUUAGCAAUAUUACGAUCC, the “self-splicing fitness (ln)” value is, setting by setting: (30 °C) -0.5 ± 0.4; (37 °C) -0.408 ± 0.23.

On to AUUUAGCAAUAUUACGCAAA, for which the “self-splicing fitness (ln)” value by setting is: (30 °C) -1.86 ± 0.15; (37 °C) -1.82 ± 0.17.

In the case of AUUUAGCAAUAUUACGCGCC, the “self-splicing fitness (ln)” value reads like this: (30 °C) -0.641 ± 0.26; (37 °C) -0.828 ± 0.34.

Consider AUUUAGCAAUAUUACGCGGA, for which the “self-splicing fitness (ln)” value is -1.73 ± 0.23 (30 °C) and -0.805 ± 0.17 (37 °C).

Take AUUUAGCAAUAUUACGCGGC: the “self-splicing fitness (ln)” value (37 °C) was -2.08 ± 0.5.

On to AUUUAGCAAUAUUACGCGUC, for which the “self-splicing fitness (ln)” value is -3.21 ± 0.3 (30 °C) and -2.96 ± 0.47 (37 °C).

For AUUUAGCAAUAUUACGCUGG, the “self-splicing fitness (ln)” value is, setting by setting: (30 °C) -1.97 ± 0.27; (37 °C) -1.4 ± 0.33.

For AUUUAGCAAUAUUACGGAAG, the “self-splicing fitness (ln)” value reads like this: (30 °C) -1.33 ± 0.29; (37 °C) -1.49 ± 0.39.

Turning to AUUUAGCAAUAUUACGGAAU, the “self-splicing fitness (ln)” value is -2.62 ± 0.28 (30 °C) and -2.49 ± 0.26 (37 °C).

Consider AUUUAGCAAUAUUACGGCCU, for which the “self-splicing fitness (ln)” value is, setting by setting: (30 °C) 0.607 ± 0.15; (37 °C) -0.166 ± 0.16.

As to AUUUAGCAAUAUUACGGGGG, the “self-splicing fitness (ln)” value reads like this: (30 °C) -2.97 ± 0.42; (37 °C) -2.81 ± 0.47.

Take AUUUAGCAAUAUUACGGUCA: the “self-splicing fitness (ln)” value was -0.961 ± 0.13 (30 °C) and -0.48 ± 0.12 (37 °C).

On to AUUUAGCAAUAUUACGGUCG, for which the “self-splicing fitness (ln)” value was -1.98 ± 0.15 (30 °C) and -1.38 ± 0.22 (37 °C).

As for AUUUAGCAAUAUUACGGUGU, the “self-splicing fitness (ln)” value reads like this: (30 °C) -2.3 ± 0.095; (37 °C) -1.48 ± 0.11.

With AUUUAGCAAUAUUACGUCGC, the “self-splicing fitness (ln)” value (30 °C) was -3.64 ± 0.26 and the “self-splicing fitness (ln)” value (37 °C) was -2.2 ± 0.21.

Turning to AUUUAGCAAUAUUACGUCUU, the “self-splicing fitness (ln)” value by setting is: (30 °C) -0.374 ± 0.12; (37 °C) 0.156 ± 0.17.

AUUUAGCAAUAUUACGUGAC: the “self-splicing fitness (ln)” value is, setting by setting: (30 °C) -2.58 ± 0.18; (37 °C) -1.49 ± 0.36.

Take CAAAAGCAAUAUUACGACGG: the “self-splicing fitness (ln)” value runs as follows: (30 °C) 0.122 ± 0.076; (37 °C) -0.14 ± 0.09.

Turning to CAAAAGCAAUAUUACGACUC, the “self-splicing fitness (ln)” value runs as follows: (30 °C) -1.44 ± 0.11; (37 °C) -0.245 ± 0.13.

Turning to CAAAAGCAAUAUUACGCACC, the “self-splicing fitness (ln)” value by setting is: (30 °C) -2.48 ± 0.31; (37 °C) -0.0893 ± 0.26.

As for CAAAAGCAAUAUUACGCAUA, the “self-splicing fitness (ln)” value runs as follows: (30 °C) -3.58 ± 0.17; (37 °C) -1.77 ± 0.12.

As to CAAAAGCAAUAUUACGCCGA, the “self-splicing fitness (ln)” value is -2.91 ± 0.23 (30 °C) and -2.49 ± 0.25 (37 °C).

The record behind these values is the supplement of paper PMC7877785.
